Source: the supplement of paper PMC10724198
± gives the standard deviation of the averaged measurements.

How the values were obtained:
[1] = system: Saccharomyces cerevisiae; test: protein stability index of tFT-peptide fusion (C-terminal peptide) (PSI (0-1 scale)); higher = more stable (slower turnover)
Protocol: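 MPS profiling in S. cerevisiae of the tFT-X12 degron library: putative degron peptides plus stable controls, 12 aa, fused to the C-terminus of a sfGFP-mCherry timer. Cells are FACS-sorted into 8 mCherry/sfGFP bins and deep-sequenced. PSI runs from 0 (unstable) to 1 (stable). Backgrounds are wild type, das1Δ and doa10Δ at 30 °C, and wild type, das1Δ, cdc34-1 and cdc53-1 at 37 °C; 2-3 technical replicates each.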

[2] = system: Saccharomyces cerevisiae; test: as above; conditions: genetic background: wild type; temperature: 30 C
[3] = genetic background: cdc34-1, temperature: 37 C
[4] = genetic background: cdc53-1, temperature: 37 C
[5] = genetic background: das1 deletion, temperature: 30 C
[6] = genetic background: das1 deletion, temperature: 37 C
[7] = genetic background: doa10 deletion, temperature: 30 C
[8] = genetic background: wild type, temperature: 30 C
[9] = genetic background: wild type, temperature: 37 C
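Also: PSI is a weighted mean of sequencing reads over stability bins, variants kept only with over 10 reads, mCherry proximal and sfGFP distal, peptide attached via GGGS linker.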

| Sequence | protein stability index [1, 3] | protein stability index [1, 4] | protein stability index [1, 5] | protein stability index [1, 6] | protein stability index [1, 7] | protein stability index [1, 8] | protein stability index [1, 9] | protein stability index [2] |
| --- | --- | --- | --- | --- | --- | --- | --- | --- |
| ACALRSLPPRPY | 0.69 ± 0.035 | 0.7529 ± 0.0042 | 0.65 ± 0.024 | 0.746 ± 0.024 | 0.68 ± 0.019 | 0.649 ± 0.021 | 0.712 ± 0.017 | 0.188 ± 0.064 |
| ACCGVFFFFFWL | 0.403 ± 0.029 | 0.479 ± 0.018 | 0.366 ± 0.031 | 0.414 ± 0.016 | 0.363 ± 0.0061 | 0.35 ± 0.02 | 0.433 ± 0.031 | 0.404 ± 0.018 |
| ACLVAVWRWVFV | 0.276 ± 0.017 | 0.44 ± 0.037 | 0.309 ± 0.024 | 0.475 ± 0.0051 | 0.0646 ± 0.012 | 0.0758 ± 0.0066 | 0.0704 ± 0.0067 | 0.126 ± 0.024 |
| AFAFLLHRFLLV | 0.493 ± 0.058 | 0.55 ± 0.0057 | 0.477 ± 0.018 | 0.584 ± 0.0064 | 0.103 ± 0.0047 | 0.11 ± 0.012 | 0.142 ± 0.011 | 0.148 ± 0.017 |
| AFRRFLLYCRFI | 0.395 ± 0.013 | 0.378 ± 0.0056 | 0.503 ± 0.035 | 0.607 ± 0.015 | 0.199 ± 0.019 | 0.148 ± 0.025 | 0.201 ± 0.029 | 0.198 ± 0.012 |
| AFYQSGGLVVVV | 0.618 ± 0.043 | 0.617 ± 0.016 | 0.459 ± 0.034 | 0.6279 ± 0.0048 | 0.45 ± 0.016 | 0.477 ± 0.024 | 0.591 ± 0.046 |  |
| AIPRWLALLVAH | 0.32 ± 0.012 | 0.381 ± 0.0079 | 0.29 ± 0.032 | 0.4508 ± 0.0036 | 0.13 ± 0.018 | 0.159 ± 0.022 | 0.238 ± 0.0066 | 0.241 ± 0.0097 |
| ALWRAWLRLRIW | 0.517 ± 0.054 | 0.591 ± 0.03 | 0.582 ± 0.019 | 0.733 ± 0.016 | 0.143 ± 0.0041 | 0.124 ± 0.0037 | 0.0985 ± 0.012 | 0.205 ± 0.0025 |
| APPFPPPPARSL | 0.644 ± 0.034 | 0.713 ± 0.0095 | 0.675 ± 0.019 | 0.718 ± 0.033 | 0.694 ± 0.022 | 0.68 ± 0.017 | 0.677 ± 0.015 |  |
| AQLVYVITAVRT | 0.452 ± 0.017 | 0.458 ± 0.024 | 0.333 ± 0.031 | 0.569 ± 0.026 | 0.291 ± 0.025 | 0.315 ± 0.019 | 0.507 ± 0.029 | 0.42 ± 0.029 |
| ARLTNYFVEWLS | 0.667 ± 0.012 | 0.757 ± 0.012 | 0.657 ± 0.0066 | 0.746 ± 0.012 | 0.358 ± 0.023 | 0.383 ± 0.029 | 0.592 ± 0.012 | 0.4612 ± 0.00085 |
| ASAYCCMITRLN | 0.485 ± 0.09 | 0.574 ± 0.086 | 0.629 ± 0.012 | 0.611 ± 0.047 | 0.0987 ± 0.011 | 0.0882 ± 0.026 | 0.1737 ± 0.00037 | 0.172 ± 0.042 |
| ASGVFSRLVLVS | 0.323 ± 0.0038 | 0.335 ± 0.016 | 0.284 ± 0.03 | 0.4576 ± 0.0023 | 0.173 ± 0.012 | 0.201 ± 0.024 | 0.282 ± 0.0035 | 0.3097 ± 0.0016 |
| ASPLRLFIPFLF | 0.678 ± 0.071 | 0.76 ± 0.017 | 0.632 ± 0.034 | 0.755 ± 0.036 | 0.192 ± 0.0066 | 0.211 ± 0.026 | 0.413 ± 0.0079 | 0.312 ± 0.058 |
| AWLWCVCWSIMR | 0.389 ± 0.017 | 0.414 ± 0.013 | 0.317 ± 0.034 | 0.502 ± 0.024 | 0.373 ± 0.028 | 0.323 ± 0.021 | 0.453 ± 0.0073 | 0.395 ± 0.025 |
| AYFPSQRVHHLM | 0.637 ± 0.046 | 0.706 ± 0.066 | 0.661 ± 0.016 | 0.765 ± 0.013 | 0.144 ± 0.0018 | 0.174 ± 0.033 | 0.374 ± 0.03 | 0.333 ± 0.017 |
| CACAVPFLLLFF | 0.474 ± 0.0077 | 0.519 ± 0.017 | 0.374 ± 0.022 | 0.505 ± 0.0063 | 0.497 ± 0.028 | 0.347 ± 0.032 | 0.494 ± 0.023 | 0.411 ± 0.025 |
| CCSRYLSNLCPI | 0.674 ± 0.052 | 0.751 ± 0.036 | 0.631 ± 0.016 | 0.7263 ± 0.0048 | 0.657 ± 0.033 | 0.648 ± 0.0072 | 0.726 ± 0.017 | 0.0813 ± 0.051 |

| Sequence | protein stability index [1, 3] | protein stability index [1, 4] | protein stability index [1, 5] | protein stability index [1, 6] | protein stability index [1, 7] | protein stability index [1, 8] | protein stability index [1, 9] | protein stability index [2] |
| --- | --- | --- | --- | --- | --- | --- | --- | --- |
| CDSRIRKIWSYL | 0.836 ± 0.069 | 0.883 ± 0.019 | 0.774 ± 0.021 | 0.834 ± 0.026 | 0.2666 ± 0.0024 | 0.284 ± 0.039 | 0.494 ± 0.0054 | 0.36 ± 0.0036 |
| CFFPLFLCTAFC | 0.465 ± 0.027 | 0.4713 ± 0.0024 | 0.394 ± 0.023 | 0.513 ± 0.011 | 0.387 ± 0.0062 | 0.39 ± 0.0053 | 0.492 ± 0.022 | 0.425 ± 0.017 |
| CFSVFSVLCFFV | 0.575 ± 0.02 | 0.6301 ± 0.0018 | 0.532 ± 0.03 | 0.627 ± 0.015 | 0.415 ± 0.035 | 0.414 ± 0.019 | 0.513 ± 0.0066 | 0.437 ± 0.029 |
| CFVFYALFGFAV | 0.37 ± 0.037 | 0.463 ± 0.027 | 0.302 ± 0.036 | 0.484 ± 0.0052 | 0.252 ± 0.0068 | 0.285 ± 0.017 | 0.431 ± 0.046 | 0.401 ± 0.013 |
| CLISILLFLCFT | 0.439 ± 0.029 | 0.509 ± 0.074 | 0.392 ± 0.014 | 0.459 ± 0.037 | 0.376 ± 0.021 | 0.39 ± 0.021 | 0.446 ± 0.0076 | 0.4162 ± 0.0015 |
| CLLVCCCFYRNV | 0.501 ± 0.043 | 0.558 ± 0.0066 | 0.409 ± 0.032 | 0.586 ± 0.0086 | 0.371 ± 0.015 | 0.399 ± 0.025 | 0.523 ± 0.0091 | 0.469 ± 0.0069 |
| CLVKIVIFFLFS | 0.22 ± 0.011 | 0.326 ± 0.016 | 0.217 ± 0.037 | 0.371 ± 0.0075 | 0.191 ± 0.012 | 0.211 ± 0.024 | 0.34 ± 0.019 | 0.349 ± 0.035 |
| CNIYVLIIIKKY | 0.1831 ± 0.00032 | 0.298 ± 0.036 | 0.192 ± 0.026 | 0.344 ± 0.076 | 0.157 ± 0.0082 | 0.164 ± 0.039 | 0.325 ± 0.049 | 0.266 ± 0.1 |
| CPPPCPLYMLLC | 0.506 ± 0.03 | 0.614 ± 0.041 | 0.536 ± 0.03 | 0.6121 ± 0.0031 | 0.163 ± 0.017 | 0.17 ± 0.024 | 0.171 ± 0.013 | 0.264 ± 0.025 |
| CRLLYYIPCGLF | 0.656 ± 0.02 | 0.703 ± 0.026 | 0.534 ± 0.029 | 0.701 ± 0.035 | 0.359 ± 0.022 | 0.403 ± 0.014 | 0.5973 ± 0.00064 | 0.49841 ± 0.00044 |
| CRRLCGWLFVCV | 0.466 ± 0.024 | 0.522 ± 0.025 | 0.387 ± 0.037 | 0.548 ± 0.014 | 0.396 ± 0.0074 | 0.38 ± 0.025 | 0.513 ± 0.036 | 0.46 ± 0.0068 |
| CSFELSVCLMLR | 0.063 ± 0.0088 | 0.07758 ± 0.00064 | 0.133 ± 0.013 | 0.198 ± 0.016 | 0.557 ± 0.015 | 0.107 ± 0.007 | 0.1855 ± 0.0013 | 0.188 ± 0.032 |
| CSLRLCVRGAIV | 0.667 ± 0.022 | 0.702 ± 0.021 | 0.602 ± 0.01 | 0.71597 ± 0.00049 | 0.586 ± 0.022 | 0.606 ± 0.0057 | 0.675 ± 0.024 | 0.0268 ± 0.022 |
| CSSSNRRRYFVL | 0.603 ± 0.034 | 0.706 ± 0.027 | 0.66 ± 0.014 | 0.724 ± 0.033 | 0.115 ± 0.022 | 0.131 ± 0.037 | 0.191 ± 0.0041 | 0.187 ± 0.023 |
| CVARWPRPAGSS | 0.699 ± 0.035 | 0.735 ± 0.047 | 0.655 ± 0.015 | 0.729 ± 0.0097 | 0.641 ± 0.017 | 0.673 ± 0.035 | 0.715 ± 0.015 | 0.723 ± 0.026 |
| CVFFPFLGVCYV | 0.4206 ± 0.0039 | 0.43047 ± 8.6e-05 | 0.333 ± 0.025 | 0.473 ± 0.0093 | 0.288 ± 0.01 | 0.336 ± 0.019 | 0.451 ± 0.0089 | 0.425 ± 0.017 |
| CVGRPIALAVRT | 0.52676 ± 0.0004 | 0.519 ± 0.048 | 0.375 ± 0.04 | 0.56 ± 0.0093 | 0.338 ± 0.025 | 0.38 ± 0.028 | 0.51959 ± 0.00012 | 0.511 ± 0.022 |
